# Assay results reported in patent publication US20210171647A1 (WUXI BIOLOGICS SHANGHAI, published 2021).
# T1: human OX40-ECD.His L29A (human, UniProt P43489 29-214)
# T1 construct: extracellular domain; not shown: C-terminal His-tag
# T1 sequence (looked up): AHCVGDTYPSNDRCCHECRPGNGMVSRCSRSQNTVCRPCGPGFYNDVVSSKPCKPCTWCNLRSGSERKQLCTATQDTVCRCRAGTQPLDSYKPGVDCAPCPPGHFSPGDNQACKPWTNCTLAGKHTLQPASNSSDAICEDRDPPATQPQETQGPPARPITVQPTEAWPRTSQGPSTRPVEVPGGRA
# T2: human OX40-ECD.His P83A (human, UniProt P43489 29-214)
# T2 construct: extracellular domain; not shown: C-terminal His-tag
# T2 sequence (looked up): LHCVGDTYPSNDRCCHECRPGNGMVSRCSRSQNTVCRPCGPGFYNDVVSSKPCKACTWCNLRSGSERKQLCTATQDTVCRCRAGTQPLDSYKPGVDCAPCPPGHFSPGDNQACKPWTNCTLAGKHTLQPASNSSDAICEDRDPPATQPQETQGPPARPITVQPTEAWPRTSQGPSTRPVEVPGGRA
# T3: human OX40-ECD.His R41A (human, UniProt P43489 29-214)
# T3 construct: extracellular domain; not shown: C-terminal His-tag
# T3 sequence (looked up): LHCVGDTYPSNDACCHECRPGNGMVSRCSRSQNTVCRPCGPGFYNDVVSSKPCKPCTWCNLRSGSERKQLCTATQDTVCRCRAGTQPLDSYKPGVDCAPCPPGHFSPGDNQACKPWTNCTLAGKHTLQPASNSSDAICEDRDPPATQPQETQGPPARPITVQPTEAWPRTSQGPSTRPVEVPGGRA
# T4: human OX40-ECD.His Q103A (human, UniProt P43489 29-214)
# T4 construct: extracellular domain; not shown: C-terminal His-tag
# T4 sequence (looked up): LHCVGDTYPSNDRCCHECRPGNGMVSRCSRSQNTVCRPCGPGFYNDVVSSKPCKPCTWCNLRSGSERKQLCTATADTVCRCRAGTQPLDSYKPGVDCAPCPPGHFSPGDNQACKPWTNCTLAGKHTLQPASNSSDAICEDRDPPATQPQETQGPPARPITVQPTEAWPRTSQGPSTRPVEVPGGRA
# T5: human OX40-ECD.His A164G (human, UniProt P43489 29-214)
# T5 construct: extracellular domain; not shown: C-terminal His-tag
# T5 sequence (looked up): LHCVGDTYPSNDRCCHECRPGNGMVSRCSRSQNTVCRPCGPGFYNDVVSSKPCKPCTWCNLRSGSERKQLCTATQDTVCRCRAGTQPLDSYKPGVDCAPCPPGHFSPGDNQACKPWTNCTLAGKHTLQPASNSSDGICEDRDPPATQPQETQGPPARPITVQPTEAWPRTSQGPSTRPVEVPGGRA
# T6: human OX40-ECD.His F133A (human, UniProt P43489 29-214)
# T6 construct: extracellular domain; not shown: C-terminal His-tag
# T6 sequence (looked up): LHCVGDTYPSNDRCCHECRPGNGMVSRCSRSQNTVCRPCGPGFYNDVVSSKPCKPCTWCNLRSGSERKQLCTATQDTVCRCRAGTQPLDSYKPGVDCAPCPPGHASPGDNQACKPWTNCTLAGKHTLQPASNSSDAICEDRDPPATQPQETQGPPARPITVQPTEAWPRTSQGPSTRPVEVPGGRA
# T7: human OX40-ECD.His P171A (human, UniProt P43489 29-214)
# T7 construct: extracellular domain; not shown: C-terminal His-tag
# T7 sequence (looked up): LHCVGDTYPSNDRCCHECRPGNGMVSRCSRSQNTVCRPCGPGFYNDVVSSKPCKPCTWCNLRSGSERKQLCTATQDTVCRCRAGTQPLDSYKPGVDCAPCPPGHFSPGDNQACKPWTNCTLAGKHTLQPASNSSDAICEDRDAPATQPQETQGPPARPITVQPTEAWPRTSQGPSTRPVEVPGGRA
# T8: human OX40-ECD.His S161A (human, UniProt P43489 29-214)
# T8 construct: extracellular domain; not shown: C-terminal His-tag
# T8 sequence (looked up): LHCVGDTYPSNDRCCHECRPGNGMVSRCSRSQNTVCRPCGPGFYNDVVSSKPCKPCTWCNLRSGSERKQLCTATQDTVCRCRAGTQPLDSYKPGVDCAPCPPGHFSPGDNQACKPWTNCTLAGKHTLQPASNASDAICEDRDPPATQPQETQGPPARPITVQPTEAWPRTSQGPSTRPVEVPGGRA
# T9: human OX40-ECD.His V63A (human, UniProt P43489 29-214)
# T9 construct: extracellular domain; not shown: C-terminal His-tag
# T9 sequence (looked up): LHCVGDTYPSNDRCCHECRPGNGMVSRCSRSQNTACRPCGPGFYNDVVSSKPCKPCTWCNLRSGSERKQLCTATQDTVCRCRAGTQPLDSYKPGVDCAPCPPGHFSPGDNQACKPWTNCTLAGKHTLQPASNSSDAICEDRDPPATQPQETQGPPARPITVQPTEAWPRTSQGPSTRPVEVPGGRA
# T10: human OX40-ECD.His H30A (human, UniProt P43489 29-214)
# T10 construct: extracellular domain; not shown: C-terminal His-tag
# T10 sequence (looked up): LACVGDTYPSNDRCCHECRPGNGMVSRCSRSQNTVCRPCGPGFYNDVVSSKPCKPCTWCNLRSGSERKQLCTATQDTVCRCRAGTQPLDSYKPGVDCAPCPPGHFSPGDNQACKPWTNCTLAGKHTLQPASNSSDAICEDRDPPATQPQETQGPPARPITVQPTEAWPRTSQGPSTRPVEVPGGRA
# B1: 1.134.9-u1-IgG1L (antibody, V domains shown)
# VH: QVQLQESGPGLVKPSGTLSLTCAVSGGSISSYNWWSWVRQPPGKGLEWIGEIYHGGNTNYNPSLKSRVTMSVDNSKNQFSLKLSSVTAADTAVYYCARAPGDWGGSPYFDFWGQGTLVTVSS
# VL: SSELTQDPAVSVALGQTVRITCQGDNLRTYYASWYQQKPGQAPILLIYGRNKRPSGIPDRFSGSSSGNTASLTITGAQAEDEAAYYCNSRDSSGNPVVFGGGTKLTVL
# notes: fully human IgG1, lambda
# What was measured:
# Assay in all cases: ELISA, antibody coated, OX40-ECD.His mutant supernatant; relative to silent alanine substitutions;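 also: captured OX40 mutant protein detected with HRP-labelled anti-His antibody, absorbance read-out, scaled to the mean signal of control mutants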
# human OX40-ECD.His L29A = target: T1, human OX40-ECD.His L29A
# Protocol: (§1) After interacting with the supernatant that contains quantified OX40 mutants or human OX40-ECD.His protein, HRP conjugated anti-His antibody (1:5000, GenScript-A00612, CHN) was added as detection antibody. Absorbance was normalized according to the average of control mutants.
# human OX40-ECD.His P83A = target: T2, human OX40-ECD.His P83A
# Protocol: as §1
# human OX40-ECD.His R41A = target: T3, human OX40-ECD.His R41A
# Protocol: as §1
# human OX40-ECD.His Q103A = target: T4, human OX40-ECD.His Q103A
# Protocol: as §1
# human OX40-ECD.His A164G = target: T5, human OX40-ECD.His A164G
# Protocol: as §1
# human OX40-ECD.His F133A = target: T6, human OX40-ECD.His F133A
# Protocol: as §1
# human OX40-ECD.His P171A = target: T7, human OX40-ECD.His P171A
# Protocol: as §1
# human OX40-ECD.His S161A = target: T8, human OX40-ECD.His S161A
# Protocol: as §1
# human OX40-ECD.His V63A = target: T9, human OX40-ECD.His V63A
# Protocol: as §1
# human OX40-ECD.His H30A = target: T10, human OX40-ECD.His H30A
# Protocol: as §1
binder,measurement,setting,value
B1,Fold Change,human OX40-ECD.His L29A,1
same,Fold Change,human OX40-ECD.His P83A,0.918
same,Fold Change,human OX40-ECD.His R41A,0.958
same,Fold Change,human OX40-ECD.His Q103A,0.974
same,Fold Change,human OX40-ECD.His A164G,0.47
same,Fold Change,human OX40-ECD.His F133A,0.627
same,Fold Change,human OX40-ECD.His P171A,1.02
same,Fold Change,human OX40-ECD.His S161A,0.945
same,Fold Change,human OX40-ECD.His V63A,0.886
same,Fold Change,human OX40-ECD.His H30A,1.01
